Reference: PMC4521584, “MutS/MutL crystal structure reveals that the MutS sliding clamp loads MutL onto DNA”

Assays:
MutSΔC800 D246C [1] = biological target: T1, MutSΔC800 D246C (UniProt P23909 1-800, D246C); test: SPR; 1 mM ATP; fitted maximum response 104 RU; SPR: 25 mM Hepes pH 7.5, 150 mM KCl, 5 mM MgCl2, 1 mM DTT, 0.05% Tween-20, 1 mM ATP (+20% glycerol for MutL-MutS assay); FP: same but 50 mM KCl, no ATP (+10% glycerol for full-length MutL); stopped-flow: 150 mM KCl, 10 uM ADP +/- 1 mM ATP, 15 C; FRET: 25 mM Hepes pH 7.2, 150 mM KCl, 5 mM MgCl2; conditions: protein: recombinant; chain copies: 2; label: immobilized for SPR; blunt, one G:T mismatch
T1 sequence: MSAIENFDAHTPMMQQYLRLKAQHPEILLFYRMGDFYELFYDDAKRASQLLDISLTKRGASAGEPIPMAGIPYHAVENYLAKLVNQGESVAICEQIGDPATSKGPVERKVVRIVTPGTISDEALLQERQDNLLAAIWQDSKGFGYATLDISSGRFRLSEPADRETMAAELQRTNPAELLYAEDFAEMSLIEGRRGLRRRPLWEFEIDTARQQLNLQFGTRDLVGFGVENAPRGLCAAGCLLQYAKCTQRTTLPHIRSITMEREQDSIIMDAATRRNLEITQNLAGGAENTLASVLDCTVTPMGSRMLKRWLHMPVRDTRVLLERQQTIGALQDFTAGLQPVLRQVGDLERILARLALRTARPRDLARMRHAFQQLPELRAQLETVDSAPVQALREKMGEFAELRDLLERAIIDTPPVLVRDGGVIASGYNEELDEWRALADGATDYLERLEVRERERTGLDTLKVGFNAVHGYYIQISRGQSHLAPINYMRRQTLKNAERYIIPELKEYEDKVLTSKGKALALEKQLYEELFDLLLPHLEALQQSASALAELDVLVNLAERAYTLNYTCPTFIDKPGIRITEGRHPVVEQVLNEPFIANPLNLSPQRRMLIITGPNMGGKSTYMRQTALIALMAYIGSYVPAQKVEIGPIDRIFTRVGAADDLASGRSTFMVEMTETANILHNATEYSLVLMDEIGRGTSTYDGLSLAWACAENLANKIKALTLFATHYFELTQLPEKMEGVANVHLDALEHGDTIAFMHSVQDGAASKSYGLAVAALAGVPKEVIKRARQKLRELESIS

MutS WT;MutL WT = MutS WT;MutL WT (Escherichia coli?;Escherichia coli?, UniProt P23909;P23367 1-853;1-615, |); test: SPR; 1 mM ATP, end-blocked; MutL binds preformed MutS clamp; SPR: 25 mM Hepes pH 7.5, 150 mM KCl, 5 mM MgCl2, 1 mM DTT, 0.05% Tween-20, 1 mM ATP (+20% glycerol for MutL-MutS assay); FP: same but 50 mM KCl, no ATP (+10% glycerol for full-length MutL); stopped-flow: 150 mM KCl, 10 uM ADP +/- 1 mM ATP, 15 C; FRET: 25 mM Hepes pH 7.2, 150 mM KCl, 5 mM MgCl2; conditions: protein: recombinant;recombinant; tags: ;His6; chain copies: 2;2; label: biotin at one end (immobilized), fluorescein at the other; blunt, one G:T mismatch
MutLLN40 N131C = MutLLN40 N131C (UniProt P23367 1-349, N131C); test: SPR; 1 mM ATP, 150 mM KCl; SPR: 25 mM Hepes pH 7.5, 150 mM KCl, 5 mM MgCl2, 1 mM DTT, 0.05% Tween-20, 1 mM ATP (+20% glycerol for MutL-MutS assay); FP: same but 50 mM KCl, no ATP (+10% glycerol for full-length MutL); stopped-flow: 150 mM KCl, 10 uM ADP +/- 1 mM ATP, 15 C; FRET: 25 mM Hepes pH 7.2, 150 mM KCl, 5 mM MgCl2; conditions: protein: recombinant; tags: His; label: biotin at one end (immobilized), fluorescein at the other; blunt, one G:T mismatch
MutSΔC800 D246C [2] = biological target: T1, MutSΔC800 D246C; test: SPR; 1 mM ATP, 150 mM KCl; fast off-rate; SPR: 25 mM Hepes pH 7.5, 150 mM KCl, 5 mM MgCl2, 1 mM DTT, 0.05% Tween-20, 1 mM ATP (+20% glycerol for MutL-MutS assay); FP: same but 50 mM KCl, no ATP (+10% glycerol for full-length MutL); stopped-flow: 150 mM KCl, 10 uM ADP +/- 1 mM ATP, 15 C; FRET: 25 mM Hepes pH 7.2, 150 mM KCl, 5 mM MgCl2; conditions: protein: recombinant; chain copies: 2; label: biotin at one end (immobilized), fluorescein at the other; blunt, one G:T mismatch
MutS WT = biological target: T2, MutS WT (UniProt P23909 1-853); test: SPR; 1 mM ATP, end-blocked with anti-fluorescein Fab; sliding clamp; SPR: 25 mM Hepes pH 7.5, 150 mM KCl, 5 mM MgCl2, 1 mM DTT, 0.05% Tween-20, 1 mM ATP (+20% glycerol for MutL-MutS assay); FP: same but 50 mM KCl, no ATP (+10% glycerol for full-length MutL); stopped-flow: 150 mM KCl, 10 uM ADP +/- 1 mM ATP, 15 C; FRET: 25 mM Hepes pH 7.2, 150 mM KCl, 5 mM MgCl2; conditions: protein: recombinant; chain copies: 2; label: biotin at one end (immobilized), fluorescein at the other; blunt, one G:T mismatch
T2 sequence: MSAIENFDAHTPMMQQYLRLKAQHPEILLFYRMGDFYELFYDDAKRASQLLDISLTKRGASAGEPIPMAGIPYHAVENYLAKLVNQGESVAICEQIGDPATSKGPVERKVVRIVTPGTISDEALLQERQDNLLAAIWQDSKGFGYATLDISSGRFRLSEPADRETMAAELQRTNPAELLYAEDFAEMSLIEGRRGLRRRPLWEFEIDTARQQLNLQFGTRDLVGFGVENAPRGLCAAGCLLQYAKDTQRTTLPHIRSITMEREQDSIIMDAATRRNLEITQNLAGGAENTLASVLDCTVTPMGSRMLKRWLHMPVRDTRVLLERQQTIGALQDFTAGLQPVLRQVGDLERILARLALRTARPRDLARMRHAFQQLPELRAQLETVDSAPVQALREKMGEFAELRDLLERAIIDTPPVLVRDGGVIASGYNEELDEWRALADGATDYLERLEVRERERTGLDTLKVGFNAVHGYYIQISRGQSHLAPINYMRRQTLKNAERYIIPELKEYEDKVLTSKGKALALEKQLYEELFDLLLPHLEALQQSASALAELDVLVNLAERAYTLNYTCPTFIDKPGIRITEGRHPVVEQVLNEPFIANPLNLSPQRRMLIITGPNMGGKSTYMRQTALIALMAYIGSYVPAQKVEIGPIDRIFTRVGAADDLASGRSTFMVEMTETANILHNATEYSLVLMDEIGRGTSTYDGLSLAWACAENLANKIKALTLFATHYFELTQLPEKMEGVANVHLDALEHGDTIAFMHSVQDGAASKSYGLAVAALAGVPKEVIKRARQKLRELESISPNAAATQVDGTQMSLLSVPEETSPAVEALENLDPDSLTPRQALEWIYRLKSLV

[3] = biological target: MutLLN40 N131C R162E/R266E/R316E (UniProt P23367 1-349, N131C;R162E;R266E;R316E); test: fluorescence polarization; 50 mM KCl; binding completely abolished; SPR: 25 mM Hepes pH 7.5, 150 mM KCl, 5 mM MgCl2, 1 mM DTT, 0.05% Tween-20, 1 mM ATP (+20% glycerol for MutL-MutS assay); FP: same but 50 mM KCl, no ATP (+10% glycerol for full-length MutL); stopped-flow: 150 mM KCl, 10 uM ADP +/- 1 mM ATP, 15 C; FRET: 25 mM Hepes pH 7.2, 150 mM KCl, 5 mM MgCl2; conditions: protein: recombinant; tags: His; label: 5' TAMRA; blunt
MutSΔC800 D246C [4] = biological target: T1, MutSΔC800 D246C; test: stopped-flow FRET and FP; 10 uM ADP, no ATP; binding with kinking; SPR: 25 mM Hepes pH 7.5, 150 mM KCl, 5 mM MgCl2, 1 mM DTT, 0.05% Tween-20, 1 mM ATP (+20% glycerol for MutL-MutS assay); FP: same but 50 mM KCl, no ATP (+10% glycerol for full-length MutL); stopped-flow: 150 mM KCl, 10 uM ADP +/- 1 mM ATP, 15 C; FRET: 25 mM Hepes pH 7.2, 150 mM KCl, 5 mM MgCl2; conditions: protein: recombinant; chain copies: 2; label: FRET: Alexa Fluor 594 on top T11 and Alexa Fluor 488 on bottom T10; FP: 5' TAMRA on top; blunt, one G:T mismatch
MutSΔC800 D246C;MutL WT = MutSΔC800 D246C;MutL WT (Escherichia coli?;Escherichia coli?, UniProt P23909;P23367 1-800;1-615, D246C|); test: stopped-flow FRET and FP; 400 nM MutL mixed, 1 mM ATP; more binding at equilibrium than MutSΔC800 alone; SPR: 25 mM Hepes pH 7.5, 150 mM KCl, 5 mM MgCl2, 1 mM DTT, 0.05% Tween-20, 1 mM ATP (+20% glycerol for MutL-MutS assay); FP: same but 50 mM KCl, no ATP (+10% glycerol for full-length MutL); stopped-flow: 150 mM KCl, 10 uM ADP +/- 1 mM ATP, 15 C; FRET: 25 mM Hepes pH 7.2, 150 mM KCl, 5 mM MgCl2; conditions: protein: recombinant;recombinant; tags: ;His6; chain copies: 2;2; label: FRET: Alexa Fluor 594 on top T11 and Alexa Fluor 488 on bottom T10; FP: 5' TAMRA on top; blunt, one G:T mismatch

B1: 41-bp G:T mismatch DNA (dsDNA)
DNA 1: ATAGGACGCTGACACTGGTGCTTGGCAGCTTCTAATTCGAT
DNA 2: ATCGAATTAGAAGCTGCCAGGCACCAGTGTCAGCGTCCTAT
binding result (MutSΔC800 D246C [1]): binds

B2: 100-bp G:T mismatch DNA (dsDNA)
DNA 1: AAACAGGCTTAGGCTGGAGCTGAAGCTTAGCTTAGGATCATCGAGGATCGAGCTCGGTGCAATTCAGCGGTACCCAATTCGCCCTATAGGCATCCAGGTT
DNA 2: AACCTGGATGCCTATAGGGCGAATTGGGTACCGCTGAATTGCACCGAGCTTGATCCTCGATGATCCTAAGCTAAGCTTCAGCTCCAGCCTAAGCCTGTTT
binding result (MutS WT;MutL WT): binds
binding result (MutLLN40 N131C): no binding
binding result (MutSΔC800 D246C [2]): binds
binding result (MutS WT): binds

B3: 41-bp homoduplex, TAMRA (dsDNA)
DNA 1: ATAGGACGCTGACACTGGTGCTTGGCAGCTTCTAATTCGAT
DNA 2: ATCGAATTAGAAGCTGCCAAGCACCAGTGTCAGCGTCCTAT
binding result [3]: no binding

B4: 45-bp G:T mismatch DNA (dsDNA)
DNA 1: GTCATCCTCGTCTCAAGCTGCCAGGCACCAGTGTCAGCGTCCTAT
DNA 2: ATAGGACGCTGACACTGGTGCTTGGCAGCTTGAGACGAGGATGAC
binding result (MutSΔC800 D246C [4]): binds
binding result (MutSΔC800 D246C;MutL WT): binds
